Measurements published in article PMC12071194.

What was measured:
mCherry-BNIP3 (WT) = test: immunoblot for dimers; immunoblot analysis of WT or OMP25C hybrids of BNIP3 and NIX expressed in B/N DKO cells
mCherry-NIX (WT) = mCherry-NIX (WT) (UniProt O60238); test: as above

mCherry-NIX (WT), O60238 1-219 (natural protein; other documents disagree on this pair), sequence (O60238 whole entry): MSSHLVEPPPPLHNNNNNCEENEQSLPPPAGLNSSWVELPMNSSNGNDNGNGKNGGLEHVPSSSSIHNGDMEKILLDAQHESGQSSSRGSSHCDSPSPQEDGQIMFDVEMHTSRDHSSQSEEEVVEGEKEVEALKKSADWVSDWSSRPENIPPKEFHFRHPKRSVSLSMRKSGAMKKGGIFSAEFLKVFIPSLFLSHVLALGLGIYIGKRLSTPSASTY
mCherry-BNIP3 (WT) (natural protein), sequence (Q12983 whole entry): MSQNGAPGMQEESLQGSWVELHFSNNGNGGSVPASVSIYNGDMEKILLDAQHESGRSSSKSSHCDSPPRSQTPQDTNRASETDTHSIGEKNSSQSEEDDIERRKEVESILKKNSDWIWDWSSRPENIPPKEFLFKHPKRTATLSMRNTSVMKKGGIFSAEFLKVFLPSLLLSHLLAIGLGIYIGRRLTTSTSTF

stoichiometry N (mCherry-BNIP3 (WT)) | stoichiometry N (mCherry-NIX (WT)) | Substance
2 | – | mCherry-BNIP3 (WT) (natural protein)
– | 2 | mCherry-NIX (WT), O60238 1-219 (natural protein; other documents disagree on this pair)
